The target in assay [1] is protein F of hRSV strain B-1 (on RSV B-1-infected Hep2 cells and on virus) (human respiratory syncytial virus, strain B-1) (UniProt P13843). The assay is described as follows: cell-based or functional assay.
Assay [2] has as its target protein F of hRSV strain Long, on virus (inactivated hRSV Long, Hytest #8RSV79; RSV Long LM-2, ATCC VR-26) (human respiratory syncytial virus, strain Long) (UniProt P12568). Briefly: cell-based or functional assay.
Assay [3] deals with hRSV FTM-NN (membrane anchorless form of the Long fusion protein, 70 kDa) (human respiratory syncytial virus, strain Long) (UniProt P12568). Briefly: SPR (Biacore), FTM-NN amine-coupled on CM5 chip, 1:1 Langmuir fit. (In general: SPR reads the build-up and loss of mass on a sensor chip optically.)

With “101F Fab (WO 06/050280, humanized monoclonal antibody, in-house produced)”, the Neutralization B-1 IC50 in assay [1] was 180 nM.
The term Kd denotes the constant that tells how readily two partners part at equilibrium. Broadly, the koff is a measure of how fast the partners let go of each other. Lower therefore signals a long-lived complex. The term kon denotes the second-order rate constant of association. Lower therefore signals slower complex formation. As to “Synagis® Mab (Palivizumab, humanized monoclonal antibody)”, the Neutralization B-1 IC50 in assay [1] was found to be 3.9 nM. Moreover, the Neutralization Long IC50 in assay [2] was determined as 5.96 nM. In assay [3], this substance came in with a Kd of 0.64 nM, an off-rate (koff) of 0.00018 s⁻¹ and an on-rate constant (kon) of 280000 M⁻¹ s⁻¹.

Source of the values: US20120301469A1.
